Measured values taken from paper PMC9757748.

Tests used:
[1] = biological target: BcsD (purified alone via a cleavable N-terminal hexahistidine tag, Bcs^H^isD) (G. hansenii); test: cryo-EM structure
[2] = biological target: N-terminally hexahistidine-tagged full-length BcsH (Bcs^H^isH^FL) (G. hansenii); test: SDS-PAGE and Western blot

Row | Substance | stoichiometry N [1] | stoichiometry N [2]
1 | BcsD (purified alone via a cleavable N-terminal hexahistidine tag, Bcs^H^isD) (natural protein) | 8 | 
2 | N-terminally hexahistidine-tagged full-length BcsH (Bcs^H^isH^FL) (natural protein) |  | 2
